{"source": "paper PMC12624790", "binders": {"B1": {"name": "Δ1-32 Msp1 (enzyme)", "chain": "DVESGPLSGKSRESKAKQSLQWEKLVKRSPALAEVTLDAYERTILSSIVTPDEINITFQDIGGLDPLISDLHESVIYPLMMPEVYSNSPLLQAPSGVLLYGPPGCGKTMLAKALAKESGANFISIRMSSIMDKWYGESNKIVDAMFSLANKLQPCIIFIDEIDSFLRERSSTDHEVTATLKAEFMTLWDGLLNNGRVMIIGATNRINDIDDAFLRRLPKRFLVSLPGSDQRYKILSVLLKDTKLDEDEFDLQLIADNTKGFSGSDLKELCREAALDAAKEYIKQKRQLIDSGTIDVNDTSSLKIRPLKTKDFTKKLRMDATSTLSSQPLD"}}, "biological_target": "His6-3C-SUMO-Sec22 TMD-thrombin-HiBiT"}
{"binder": "B1", "values": [{"measurement": "percent of substrate extracted from standard liposomes by Msp1 with ATP (split-luciferase extraction assay, 30 min, 30 °C)", "value": 10, "unit": "%"}]}
